The numbers were not newly measured in article PMC3144249, which cites them from elsewhere.

For orientation: pKd means the negative decadic logarithm of the Kd, by convention in mol/L.

Series [1] deals with arrestin-1 (Mus musculus) (UniProt P20443).
Series [2] addresses arrestin-1 dimer (Mus musculus) (UniProt P20443).

pKd: −log10 of the molar value.

As for arrestin-1 (from UniProt P20443), in series [1], the pKd is 4.24.
Regarding arrestin-1 dimer (from UniProt P20443), the pKd in series [2] is 4.20.
